Data reported in patent publication US20110129412A1.

Experiments:
[1] = biological target: human CD20 (human) (UniProt P11836); experiment: cell-based or functional assay
[2] = biological target: human CD20 (human) (UniProt P11836); experiment: FACS titration on SB cells expressing CD20, 3 h at 4 C, nonlinear fit of geometric mean fluorescence

human CD20 (human), sequence (P11836 whole entry): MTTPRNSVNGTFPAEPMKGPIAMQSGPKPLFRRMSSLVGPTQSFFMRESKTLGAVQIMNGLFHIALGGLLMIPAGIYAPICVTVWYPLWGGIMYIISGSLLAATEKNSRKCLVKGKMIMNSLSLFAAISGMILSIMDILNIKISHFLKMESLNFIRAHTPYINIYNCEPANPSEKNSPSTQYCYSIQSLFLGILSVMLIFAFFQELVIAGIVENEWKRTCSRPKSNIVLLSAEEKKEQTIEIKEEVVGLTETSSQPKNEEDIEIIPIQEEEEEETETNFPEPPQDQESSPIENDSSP

Rituxan (Rituximab), Genentech (antibody)
% Lysis Daudi 0.001 µg/ml ADCC [1]: 33%
% Lysis Daudi 1 µg/ml ADCC [1]: 95%
% Lysis Raji 0.001 µg/ml ADCC [1]: 16%
% Lysis Raji 1 µg/ml ADCC [1]: 62%
% Lysis Ramos 0.001 µg/ml ADCC [1]: 5%
% Lysis Ramos 1 µg/ml ADCC [1]: 78%
EC50 Daudi CDC [1]: 1.56 µg/mL
EC50 Raji CDC [1]: 0.31 µg/mL
EC50 Ramos Apoptosis Alamar Blue [1]: 0.222 µg/mL
EC50 Ramos Apoptosis Annexin V [1]: 2.59 µg/mL
EC50 Ramos Apoptosis Cell Titer Glo [1]: 0.576 µg/mL
EC50 Ramos Apoptosis WST-1 [1]: 0.0326 µg/mL
EC50 Ramos CDC [1]: 0.43 µg/mL
Kd [2]: 8.1 nM
